Values joined by “and” are separate entries in the source; they are usually repeats but may differ in a detail not shown here. Identical values can stand only once.
Experiments:
[1] = target: T1, human PD-L1 expressed on cells (human, UniProt Q9NZQ7 19-290); experiment: cell-based or functional assay
[2] = target: T1, human PD-L1 expressed on cells; experiment: flow cytometry on HEK cells expressing human PD-L1
Description: (§1) HEK cells expressing human or cynomolgus PD-L1 grown in DMEM (Life Technologies, 61965-026) containing 10% FBS (Life Technologies, 10270-1-6), 100 μg/ml Hygromycin B (Melford Laboratories Ltd, Z2475), 15 μg/ml Blasticidin (Melford Laboratories Ltd, B1105) and 1 μg/ml Doxycyclin (Sigma, D9891) were detached from tissue culture flasks using cell dissociation buffer (Life Technologies, 13151-014) and seeded in V-bottom 96-well plates (Costar, 3897) at 2×10⁵ cells/well. The plates were centrifuged at 1500 rpm for 3 min at 4° C. to pellet the cells. A dilution series of the mAb² (or control mAb) was incubated with the cells in a 100 μl volume for 1 h at 4° C. The plates were washed and secondary antibody (Anti-human Fc-488, Jackson ImmunoResearch, 109-546-098) was diluted 1:1000 in PBS and 100 μl was added to the cells for 30 min at 4° C. (plates were kept in the dark). The plates were washed then cells were resuspended in 100 μl PBS containing 1 μg/ml DAPI (Biotium, 40043). The plates were read using Canto II flow cytometer (BD Bioscience). Dead cells were excluded and the fluorescence in the FITC channel (488 nm/530/30) was measured. The data was fit using log (agonist) vs response in GraphPad Prism Software. The plates were read on a BD FACSCanto II cytometer (BD Biosciences) and the data analysed using FlowJo.

[3] = target: T2, cynomolgus PD-L1 expressed on cells (cynomolgus monkey, UniProt Q9NZQ7 19-290 (human entry)); experiment: flow cytometry on HEK cells expressing cynomolgus PD-L1
T2 construct: also called cPD-L1; cyno PD-L1
T2 sequence (Q9NZQ7 other isoform, or with tags, fused parts or gaps limits assumed): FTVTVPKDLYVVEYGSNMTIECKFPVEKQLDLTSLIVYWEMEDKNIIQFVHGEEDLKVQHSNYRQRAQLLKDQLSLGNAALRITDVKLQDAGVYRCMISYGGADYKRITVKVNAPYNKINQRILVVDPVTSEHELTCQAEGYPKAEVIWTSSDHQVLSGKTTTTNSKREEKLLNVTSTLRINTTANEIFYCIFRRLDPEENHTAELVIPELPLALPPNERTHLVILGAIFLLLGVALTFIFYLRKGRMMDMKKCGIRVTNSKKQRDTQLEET
Description: as §1

[4] = target: T3, human PD-L1 Fc (R&D Systems, 156-B7) (human, UniProt Q9NZQ7 19-239); experiment: SPR, BIAcore T200; mAb2 captured on Protein L, PD-L1 Fc injected
T3 construct: Bought protein; not shown: Fc tag of the bought fusion protein
T3 sequence (Q9NZQ7 19-239 limits assumed): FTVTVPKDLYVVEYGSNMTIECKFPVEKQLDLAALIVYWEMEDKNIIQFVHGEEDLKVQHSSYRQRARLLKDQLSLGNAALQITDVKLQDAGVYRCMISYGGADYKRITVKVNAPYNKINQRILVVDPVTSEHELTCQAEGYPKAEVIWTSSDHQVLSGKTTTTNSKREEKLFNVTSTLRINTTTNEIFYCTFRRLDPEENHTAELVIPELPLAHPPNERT
Description: (§2) Protein L (Thermo, 21189) was immobilized on flow cells 1 and 2 of a Series S CM5 chip (GE Healthcare, BR-1005-30) by amine coupling (GE Healthcare, BR-1000-50) to a surface density of 2000 RU by following the manufacturer's instructions for the BIAcore T200 instrument. […] The association time was 3 min and the dissociation time was 6 min. Running buffer was HBS-P (GE Healthcare, BR-1003-68). Both flow cells were regenerated by injecting 10 mM sodium hydroxide (NaOH) at a flow rate of 100 μl/min for 20 seconds. The data were analysed by double referencing against the blank flow cell.
(§3) The binding kinetics were fit with a 1:1 Langmuir model to generate binding association (kₐ) and dissociation (kd) rates. Equilibrium binding constants (KD) were calculated by dividing the dissociation rate by the association rate for each sample. Data analysis was performed with BiaEvaluation software version 3.2.

[5] = target: T4, recombinant Fc-tagged human LAG-3 (R&D Systems, 2319-L3-050) (human, UniProt P18627 23-450); experiment: SPR, BIAcore T200; mAb2 captured on Protein L, human LAG-3 Fc injected
T4 construct: Bought protein; also called LAG-3 Fc; human LAG-3-Fc; not shown: Fc tag of the bought fusion protein
T4 sequence: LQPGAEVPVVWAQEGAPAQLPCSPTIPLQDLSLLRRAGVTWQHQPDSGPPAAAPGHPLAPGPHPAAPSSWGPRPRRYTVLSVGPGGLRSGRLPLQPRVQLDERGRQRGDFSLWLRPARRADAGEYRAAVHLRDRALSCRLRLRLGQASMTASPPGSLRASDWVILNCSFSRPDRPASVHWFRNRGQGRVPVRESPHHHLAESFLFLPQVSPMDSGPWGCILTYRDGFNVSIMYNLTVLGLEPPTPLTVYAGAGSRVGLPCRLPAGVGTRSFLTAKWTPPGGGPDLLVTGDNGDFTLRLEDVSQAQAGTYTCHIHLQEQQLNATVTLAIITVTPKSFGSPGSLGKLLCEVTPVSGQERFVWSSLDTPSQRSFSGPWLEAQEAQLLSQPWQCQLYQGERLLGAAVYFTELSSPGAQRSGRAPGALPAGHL
Description: as §2, §3

T1 sequence (Q9NZQ7 19-290 limits assumed): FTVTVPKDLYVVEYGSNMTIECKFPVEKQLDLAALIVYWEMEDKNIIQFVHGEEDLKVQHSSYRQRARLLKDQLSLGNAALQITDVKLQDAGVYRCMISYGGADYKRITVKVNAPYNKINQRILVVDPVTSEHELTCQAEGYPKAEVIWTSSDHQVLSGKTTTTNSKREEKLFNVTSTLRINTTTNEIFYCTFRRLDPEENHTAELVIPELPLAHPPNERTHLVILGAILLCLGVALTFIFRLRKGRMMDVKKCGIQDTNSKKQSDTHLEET

B1: anti-human LAG-3/PD-L1 mAb2 FS18-7-32/84G09 with LALA mutation (bispecific antibody, human IgG1, kappa, L234A L235A)
heavy: EVQLVESGGGLVQPGRSLRLSCAASGFTFDDYAMHWVRQTPGKGLEWVSGISWKSNIIGYADSVKGRFTISRDNAKNSLYLQMNSLRAEDTALYYCARDITGSGSYGWFDPWGQGTLVTVSSASTKGPSVFPLAPSSKSTSGGTAALGCLVKDYFPEPVTVSWNSGALTSGVHTFPAVLQSSGLYSLSSVVTVPSSSLGTQTYICNVNHKPSNTKVDKKVEPKSCDKTHTCPPCPAPEAAGGPSVFLFPPKPKDTLMISRTPEVTCVVVDVSHEDPEVKFNWYVDGVEVHNAKTKPREEQYNSTYRVVSVLTVLHQDWLNGKEYKCKVSNKALPAPIEKTISKAKGQPREPQVYTLPPSWDEPWGEDVSLTCLVKGFYPSEIAVEWESNGQPENNYKTTPPVLDSDGSFFLYSKLTVPYDRWVWPDEFSCSVMHEALHNHYTQKSLSLSPG
light: DIQMTQSPSSLSASVGDRVTITCRASQSISSYLNWYQQKPGKAPKPLIYVASSLQSGVPSSFSGSGSGTDFTLTISSLQPEDFATYYCQQSYSNPITFGQGTRLEIKRTVAAPSVFIFPPSDEQLKSGTASVVCLLNNFYPREAKVQWKVDNALQSGNSQESVTEQDSKDSTYSLSSTLTLSKADYEKHKVYACEVTHQGLSSPVTKSFNRGEC
notes: also called FS18-7-32/84G09LALA; F518-7-32/84G09LALA
Maximal IL2 release calculated as % ctrl (84G09 + 25F7) [1]: 82.9%
EC50 [2]: 3.82 nM
EC50 [3]: 1.98 nM
Kd [4]: 1 nM
koff [4]: 0.00032 s⁻¹
kon [4]: 340000 M⁻¹ s⁻¹
Kd [5]: 0.049 nM
koff [5]: 0.00028 s⁻¹
kon [5]: 5.6e+06 M⁻¹ s⁻¹

B2: anti-human LAG-3/PD-L1 mAb2 FS18-7-95/84G09 with LALA mutation (bispecific antibody, human IgG1, kappa, L234A L235A)
heavy: EVQLVESGGGLVQPGRSLRLSCAASGFTFDDYAMHWVRQTPGKGLEWVSGISWKSNIIGYADSVKGRFTISRDNAKNSLYLQMNSLRAEDTALYYCARDITGSGSYGWFDPWGQGTLVTVSSASTKGPSVFPLAPSSKSTSGGTAALGCLVKDYFPEPVTVSWNSGALTSGVHTFPAVLQSSGLYSLSSVVTVPSSSLGTQTYICNVNHKPSNTKVDKKVEPKSCDKTHTCPPCPAPEAAGGPSVFLFPPKPKDTLMISRTPEVTCVVVDVSHEDPEVKFNWYVDGVEVHNAKTKPREEQYNSTYRVVSVLTVLHQDWLNGKEYKCKVSNKALPAPIEKTISKAKGQPREPQVYTLPPSWDEPWGEDVSLTCLVKGFYPSDIAVEWESNGYQEDNYKTTPPVLDSDGSFFLYSKLTVPYDRWVWPDEFSCSVMHEALHNHYTQKSLSLSPG
light: DIQMTQSPSSLSASVGDRVTITCRASQSISSYLNWYQQKPGKAPKPLIYVASSLQSGVPSSFSGSGSGTDFTLTISSLQPEDFATYYCQQSYSNPITFGQGTRLEIKRTVAAPSVFIFPPSDEQLKSGTASVVCLLNNFYPREAKVQWKVDNALQSGNSQESVTEQDSKDSTYSLSSTLTLSKADYEKHKVYACEVTHQGLSSPVTKSFNRGEC
Maximal IL2 release calculated as % ctrl (84G09 + 25F7) [1]: 79.8%

B3: anti-human PD-L1 mAb 84G09 (without LALA mutation) (antibody, human IgG1, kappa)
heavy: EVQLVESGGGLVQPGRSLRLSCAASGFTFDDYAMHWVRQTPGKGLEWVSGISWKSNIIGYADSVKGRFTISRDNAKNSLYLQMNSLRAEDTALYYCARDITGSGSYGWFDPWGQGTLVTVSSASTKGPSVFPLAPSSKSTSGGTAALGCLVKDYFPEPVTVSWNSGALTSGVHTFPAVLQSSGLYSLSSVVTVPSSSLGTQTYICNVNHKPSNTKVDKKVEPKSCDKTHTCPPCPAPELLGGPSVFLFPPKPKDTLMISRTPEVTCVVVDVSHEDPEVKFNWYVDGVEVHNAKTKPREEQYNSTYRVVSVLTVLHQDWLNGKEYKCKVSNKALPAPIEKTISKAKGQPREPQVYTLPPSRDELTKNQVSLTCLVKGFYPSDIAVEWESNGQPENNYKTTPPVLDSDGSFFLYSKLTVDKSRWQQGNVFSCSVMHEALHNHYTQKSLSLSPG
light: DIQMTQSPSSLSASVGDRVTITCRASQSISSYLNWYQQKPGKAPKPLIYVASSLQSGVPSSFSGSGSGTDFTLTISSLQPEDFATYYCQQSYSNPITFGQGTRLEIKRTVAAPSVFIFPPSDEQLKSGTASVVCLLNNFYPREAKVQWKVDNALQSGNSQESVTEQDSKDSTYSLSSTLTLSKADYEKHKVYACEVTHQGLSSPVTKSFNRGEC
notes: Human IgG1; also called 84G09 (parental); parental anti-PD-L1 mAb
EC50 [2]: 3.11 nM and 3.05 nM
EC50 [3]: 1.64 nM and 1.96 nM

B4: anti-human LAG-3/PD-L1 mAb2 FS18-7-33/84G09 with LALA mutation (bispecific antibody, human IgG1, kappa, L234A L235A)
heavy: EVQLVESGGGLVQPGRSLRLSCAASGFTFDDYAMHWVRQTPGKGLEWVSGISWKSNIIGYADSVKGRFTISRDNAKNSLYLQMNSLRAEDTALYYCARDITGSGSYGWFDPWGQGTLVTVSSASTKGPSVFPLAPSSKSTSGGTAALGCLVKDYFPEPVTVSWNSGALTSGVHTFPAVLQSSGLYSLSSVVTVPSSSLGTQTYICNVNHKPSNTKVDKKVEPKSCDKTHTCPPCPAPEAAGGPSVFLFPPKPKDTLMISRTPEVTCVVVDVSHEDPEVKFNWYVDGVEVHNAKTKPREEQYNSTYRVVSVLTVLHQDWLNGKEYKCKVSNKALPAPIEKTISKAKGQPREPQVYTLPPSWDEPWGEDVSLTCLVKGFYPSDIAVEWESNGQPEDNYKTTPPVLDSDGSFFLYSKLTVPYDRWVWPDEFSCSVMHEALHNHYTQKSLSLSPG
light: DIQMTQSPSSLSASVGDRVTITCRASQSISSYLNWYQQKPGKAPKPLIYVASSLQSGVPSSFSGSGSGTDFTLTISSLQPEDFATYYCQQSYSNPITFGQGTRLEIKRTVAAPSVFIFPPSDEQLKSGTASVVCLLNNFYPREAKVQWKVDNALQSGNSQESVTEQDSKDSTYSLSSTLTLSKADYEKHKVYACEVTHQGLSSPVTKSFNRGEC
notes: also called FS18-7-33/84G09LALA; F518-7-33/84G09LALA
Maximal IL2 release calculated as % ctrl (84G09 + 25F7) [1]: 64%
EC50 [2]: 3.45 nM and 3.23 nM
EC50 [3]: 1.9 nM and 1.73 nM
Kd [4]: 1.1 nM
koff [4]: 0.00042 s⁻¹
kon [4]: 370000 M⁻¹ s⁻¹
Kd [5]: 0.043 nM
koff [5]: 0.00018 s⁻¹
kon [5]: 4.2e+06 M⁻¹ s⁻¹

B5: anti-human LAG-3/PD-L1 mAb2 FS18-7-88/84G09 with LALA mutation (bispecific antibody, human IgG1, kappa, L234A L235A)
heavy: EVQLVESGGGLVQPGRSLRLSCAASGFTFDDYAMHWVRQTPGKGLEWVSGISWKSNIIGYADSVKGRFTISRDNAKNSLYLQMNSLRAEDTALYYCARDITGSGSYGWFDPWGQGTLVTVSSASTKGPSVFPLAPSSKSTSGGTAALGCLVKDYFPEPVTVSWNSGALTSGVHTFPAVLQSSGLYSLSSVVTVPSSSLGTQTYICNVNHKPSNTKVDKKVEPKSCDKTHTCPPCPAPEAAGGPSVFLFPPKPKDTLMISRTPEVTCVVVDVSHEDPEVKFNWYVDGVEVHNAKTKPREEQYNSTYRVVSVLTVLHQDWLNGKEYKCKVSNKALPAPIEKTISKAKGQPREPQVYTLPPSWDEPWGEDVSLTCLVKGFYPSDIAVEWESNGVPELNVKTTPPVLDSDGSFFLYSKLTVPYDRWVWPDEFSCSVMHEALHNHYTQKSLSLSPG
light: DIQMTQSPSSLSASVGDRVTITCRASQSISSYLNWYQQKPGKAPKPLIYVASSLQSGVPSSFSGSGSGTDFTLTISSLQPEDFATYYCQQSYSNPITFGQGTRLEIKRTVAAPSVFIFPPSDEQLKSGTASVVCLLNNFYPREAKVQWKVDNALQSGNSQESVTEQDSKDSTYSLSSTLTLSKADYEKHKVYACEVTHQGLSSPVTKSFNRGEC
EC50 [2]: 3.49 nM
EC50 [3]: 1.81 nM

B6: anti-human LAG-3/PD-L1 mAb2 FS18-7-58/84G09 with LALA mutation (bispecific antibody, human IgG1, kappa, L234A L235A)
heavy: EVQLVESGGGLVQPGRSLRLSCAASGFTFDDYAMHWVRQTPGKGLEWVSGISWKSNIIGYADSVKGRFTISRDNAKNSLYLQMNSLRAEDTALYYCARDITGSGSYGWFDPWGQGTLVTVSSASTKGPSVFPLAPSSKSTSGGTAALGCLVKDYFPEPVTVSWNSGALTSGVHTFPAVLQSSGLYSLSSVVTVPSSSLGTQTYICNVNHKPSNTKVDKKVEPKSCDKTHTCPPCPAPEAAGGPSVFLFPPKPKDTLMISRTPEVTCVVVDVSHEDPEVKFNWYVDGVEVHNAKTKPREEQYNSTYRVVSVLTVLHQDWLNGKEYKCKVSNKALPAPIEKTISKAKGQPREPQVYTLPPSWDEPWGEDVSLTCLVKGFYPSDIAVEWESNGYPEIEFKTTPPVLDSDGSFFLYSKLTVPYDRWVWPDEFSCSVMHEALHNHYTQKSLSLSPG
light: DIQMTQSPSSLSASVGDRVTITCRASQSISSYLNWYQQKPGKAPKPLIYVASSLQSGVPSSFSGSGSGTDFTLTISSLQPEDFATYYCQQSYSNPITFGQGTRLEIKRTVAAPSVFIFPPSDEQLKSGTASVVCLLNNFYPREAKVQWKVDNALQSGNSQESVTEQDSKDSTYSLSSTLTLSKADYEKHKVYACEVTHQGLSSPVTKSFNRGEC
notes: also called F518-7-58/84G09LALA
Maximal IL2 release calculated as % ctrl (84G09 + 25F7) [1]: 79.4%
EC50 [2]: 3.77 nM and 3.91 nM
EC50 [3]: 1.86 nM and 2.03 nM

From patent US20220185894A1 (F STAR THERAPEUTICS, published 2022)
